# Test results: IntAct's records for PubMed 31515488
# B1: AN1-type zinc finger protein 2B (Homo sapiens), Q8WV99 (parent)
# chain: MEFPDLGAHCSEPSCQRLDFLPLKCDACSGIFCADHVAYAQHHCGSAYQKDIQVPVCPLCNVPVPVARGEPPDRAVGEHIDRDCRSDPAQQKRKIFTNKCERAGCRQREMMKLTCERCSRNFCIKHRHPLDHDCSGEGHPTSRAGLAAISRAQAVASTSTVPSPSQTMPSCTSPSRATTRSPSWTAPPVIALQNGLSEDEALQRALEMSLAETKPQVPSCQEEEDLALAQALSASEAEYQRQQAQSRSSKPSNCSLC
# partner: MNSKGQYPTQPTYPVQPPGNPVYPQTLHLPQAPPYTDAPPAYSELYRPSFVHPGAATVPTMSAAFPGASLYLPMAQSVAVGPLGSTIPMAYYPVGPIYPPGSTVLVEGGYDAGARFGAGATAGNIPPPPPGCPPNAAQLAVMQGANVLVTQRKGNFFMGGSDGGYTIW
# B2: Origin recognition complex subunit 6 (Homo sapiens), Q9Y5N6 (parent)
# chain: MGSELIGRLAPRLGLAEPDMLRKAEEYLRLSRVKCVGLSARTTETSSAVMCLDLAASWMKCPLDRAYLIKLSGLNKETYQSCLKSFECLLGLNSNIGIRDLAVQFSCIEAVNMASKILKSYESSLPQTQQVDLDLSRPLFTSAALLSACKILKLKVDKNKMVATSGVKKAIFDRLCKQLEKIGQQVDREPGDVATPPRKRKKIVVEAPAKEMEKVEEMPHKPQKDEDLTQDYEEWKRKILENAASAQKATAE
# partner: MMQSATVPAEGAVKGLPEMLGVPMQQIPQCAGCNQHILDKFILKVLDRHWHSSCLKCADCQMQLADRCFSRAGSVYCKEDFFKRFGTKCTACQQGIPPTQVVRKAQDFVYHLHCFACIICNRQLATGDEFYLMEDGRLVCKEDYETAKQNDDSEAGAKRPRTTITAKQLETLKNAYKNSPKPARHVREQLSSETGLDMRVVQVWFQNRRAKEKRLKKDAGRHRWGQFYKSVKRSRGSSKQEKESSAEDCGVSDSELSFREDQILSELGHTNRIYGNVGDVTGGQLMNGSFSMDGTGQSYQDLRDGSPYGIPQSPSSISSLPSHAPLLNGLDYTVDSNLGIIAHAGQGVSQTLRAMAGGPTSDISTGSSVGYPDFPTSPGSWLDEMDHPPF
# B3: IQ motif and ubiquitin-like domain-containing protein (Homo sapiens), Q8NA54 (parent)
# chain: MSNQQEKYEAQNIVNSTEESDDAFDTVTIPVPSEEPQESDQTEEHESGIEQFSESHAIHVEEQSDQSFSSLEPDNEQLMEEVISPRQVSYTPQHHEKQYAMQRPNDDSLAFLDKIKSVKESLQESVEDSLATVKVVLIPVGQEIVIPFKVDTILKYLKDHFSHLLGIPHSVLQIRYSGKILKNNETLVQHGVKPQEIVQVEIFSTNPDLYPVRRIDGLTDVSQIITVTVQTGLDQYQQVPVEIVKSDFHKPFLGGFRHKVTGVEYHNAGTQTVPKRIPERLSIFCRDTQTVFQKKNLQQTTNTTSTQMTNIGVYVSNMTDKLVTPGKYFSAAEYHAQRLKAVIVIQTYYRQWHAKIFVENLRRQKSLRLEWETQQELRKIREKEEWIKLDYHRRHNPKTNEDFEFLYNALEFWRQEELTRINQSFTGAERKAALCELLEKETQIIASIGRHRYIAYMANQEAAIQAFLDKCSAPKIWRTPNGKTIEMDTQFTIRARELQNIYKCIMLKNISQDERLDVLLTLKHTVKEHECKLTQEILELIDREVDLMMRGVKHHNLEGLRKRIATLFFHYIKTPLFNPEVAKYLKVPQDPLKFYKKIYFCHSCQLYLPSTEFSVSSTSRRIYRCRNCINLQNEAQKRESFLKYKCLLQQLYYTEADYEDDSKIAFLMQLQDIQYLTENIWASQSVLSACDNLSDLVMVRWNKSLEWSPWNCILLTKDEAAAHLKLTSIEEGYERSFIHKIKHKHILAKNYFSQVPVLASFILDDGEIDEIRWKYHSDTTPKIIESQRPPH
# B4: Elongin-A2 (Homo sapiens), Q8IYF1 (parent)
# chain: MAAGSTTLHAVEKLQVRLATKTEPKKLEKYLQKLSALPMTADILAETGIRKTVKRLRKHQHVGDFARDLAARWKKLVLVDRNTRPGPQDPEESASRQRFGEALQDQEKAWGFPENATAPRSPSHSPEHRRTARRTPPGQQRPHPRSHSREPRAERKCPRIAPADSGRYRASPTRTAPLRMPEGPEPAAPGKQPGRGHTHAAQGGPLLCPGCQGQPQGKAVVSHSKGHKSSRQEKRPLCAQGDWHSPTLIREKSCGACLREETPRMPSWASARDRQPSDFKTDKEGGQAGSGQRVPALEEAPDSHQKRPQHSHSNKKRPSLDGRDPGNGTHGLSPEEKEQLSNDRETQEGKPPTAHLDRTSVSSLSEVEEVDMAEEFEQPTLSCEKYLTYDQLRKQKKKTGKSATTALGDKQRKANESKGTRESWDSAKKLPPVQESQSERLQAAGADSAGPKTVPSHVFSELWDLSEAWMQANYDPLSDSDSMTSQAKPEALSSPKFREEAAFPGRRVNAKMPVYSGSRPACQLQVPTLRQQCAQVLRNNPDALSDVGEVPYWVLEPVLEGWRPDQLYRRKKDNHALVRETDELRRNHCFQDFKEEKPQENKTWREQYLRLPDAPEQRLRVMTTNIRSARGNNPNGREAKMICFKSVAKTPYDTSRRQEKSAGDADPENGEIKPASKPAGSSHTPSSQSSSGGGRDSSSSILRWLPEKRANPCLSSSNEHAAPAAKTRKQAAKKVAPLMAKAIRDYKRRFSRR
# partner: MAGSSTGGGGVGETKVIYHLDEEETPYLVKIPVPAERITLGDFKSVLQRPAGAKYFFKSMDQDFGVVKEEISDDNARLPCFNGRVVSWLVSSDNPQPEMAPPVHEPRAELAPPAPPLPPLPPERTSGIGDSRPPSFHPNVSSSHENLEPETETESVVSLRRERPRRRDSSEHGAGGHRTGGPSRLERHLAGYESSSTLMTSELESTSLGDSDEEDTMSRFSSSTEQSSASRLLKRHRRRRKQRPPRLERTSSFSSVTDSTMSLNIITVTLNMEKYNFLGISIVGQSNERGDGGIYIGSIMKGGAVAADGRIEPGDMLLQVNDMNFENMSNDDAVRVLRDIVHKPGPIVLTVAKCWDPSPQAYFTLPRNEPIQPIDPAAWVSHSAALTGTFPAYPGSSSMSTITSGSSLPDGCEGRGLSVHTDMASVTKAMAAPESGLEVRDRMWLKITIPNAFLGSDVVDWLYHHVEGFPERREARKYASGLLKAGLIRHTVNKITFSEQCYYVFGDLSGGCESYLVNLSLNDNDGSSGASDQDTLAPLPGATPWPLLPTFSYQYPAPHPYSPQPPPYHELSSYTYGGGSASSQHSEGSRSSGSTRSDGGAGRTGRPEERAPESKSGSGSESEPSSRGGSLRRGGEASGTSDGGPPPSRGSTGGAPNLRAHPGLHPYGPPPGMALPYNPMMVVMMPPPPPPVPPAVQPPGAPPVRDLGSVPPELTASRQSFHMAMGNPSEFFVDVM
# Variants of: B1
# Conditions: with dazp2_human DAZAP2, Q15038
row,Variant,effect of a mutation on the interaction
1,P71H,with no effect

# Variants of: B2
# Conditions: with lhx4_human LHX4, Q969G2
row,Variant,effect of a mutation on the interaction
1,K201N,with no effect

# Variants of: B3
# Conditions: with tri23_human TRIM23, P36406
# tri23_human TRIM23, P36406, sequence (P36406 whole entry): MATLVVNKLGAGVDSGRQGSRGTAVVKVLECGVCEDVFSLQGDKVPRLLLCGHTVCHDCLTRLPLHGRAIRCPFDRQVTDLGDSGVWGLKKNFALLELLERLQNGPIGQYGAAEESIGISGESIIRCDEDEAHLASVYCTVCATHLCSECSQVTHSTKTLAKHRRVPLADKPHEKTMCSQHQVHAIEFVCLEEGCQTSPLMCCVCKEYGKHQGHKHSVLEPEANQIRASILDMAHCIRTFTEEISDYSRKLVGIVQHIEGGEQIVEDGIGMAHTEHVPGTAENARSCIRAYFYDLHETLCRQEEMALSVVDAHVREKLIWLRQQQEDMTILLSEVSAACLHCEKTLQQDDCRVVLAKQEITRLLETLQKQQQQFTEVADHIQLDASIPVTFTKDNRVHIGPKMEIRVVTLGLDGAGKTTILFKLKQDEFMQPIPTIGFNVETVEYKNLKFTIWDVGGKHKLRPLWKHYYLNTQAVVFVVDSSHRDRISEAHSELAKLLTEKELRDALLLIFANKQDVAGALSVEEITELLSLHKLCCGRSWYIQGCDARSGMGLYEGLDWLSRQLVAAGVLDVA
row,Variant,effect of a mutation on the interaction
1,V126M,with no effect

# Variants of: B4
# Conditions: with dvl2_human DVL2, O14641
row,Variant,effect of a mutation on the interaction
1,C254F,with no effect
2,A446T,with no effect
3,G505R,with no effect
4,D302H,with no effect
5,A403S,with no effect
6,R498Q,with no effect
7,R179P,with no effect
8,T6S,with no effect
